The values below come from paper PMC2796168 (2009).

The chains are these.
B1: CCL3/CCL5 chimera (ligand)
chain: ASLAADTPTACCFAYIARPLPRAHIKEYFYTSGKCSNPAVVFVTRKNRQVCANPEKKWVREYINSLEMS
B2: CCL4 (protein)
chain: APMGSDPPTACCFSYTARKLPRNFVVDYYETSSLCSQPAVVFQTKRSKQVCADPSESWVQEYVYDLELN
modifications: disulfide (positions not given here)
B3: Evasin-1 WT (natural protein)
chain: EDDEDYGDLGGCPFLVAENKTGYPTIVACKQDCNGTTETAPNGTRCFSIGDEGLRRMTANLPYDCPLGQCSNGDCIPKETYEVCYRRNWRDKKN
B4: CCL18 (protein)
chain: AQVGTNKELCCLVYTSWQIPQKFIVDYSETSPQCPKPGVILLTKRGRQICADPNKKWVQKYISDLKLNA
modifications: disulfide (positions not given here)
B5: Δ4CCL3 (ligand)
chain: ADTPTACCFSYTSRQIPQNFIADYFETSSQCSKPGVIFLTKRSRQVCADPSEEWVQKYVSDLELSA
B6: CCL3 (ligand)
chain: SLAADTPTACCFSYTSRQIPQNFIADYFETSSQCSKPGVIFLTKRSRQVCADPSEEWVQKYVSDLELSA

The target in assay [1] is B3. The experiment in a line: SPR. In general terms: Surface plasmon resonance follows binding to a sensor surface in real time, without labels.
The target in assay [2] is B3. The experiment in a line: SPR.
For assay [3], the target named is B6. Put plainly: SPR; immobilized CCL3.
The target in assay [4] is B6. Put plainly: SPR; immobilized CCL3.
Assay [5] has as its target T1, Evasin-1 F14A W89A (Rhipicephalus sanguineus, UniProt P0C8E7 21-114, F14A | W89A). Put plainly: SPR; immobilized CCL3.
The target in assay [6] is T1, Evasin-1 F14A W89A. The experiment in a line: SPR; immobilized CCL3. The source holds these as a separate data set.

With B1, in the assay with Evasin-1 WT [1], binding was put at a Kd of 1.02 nM. Besides, in the assay with Evasin-1 WT [2], the off-rate constant (koff) – broadly, a measure of how fast the partners let go of each other – is 0.0038 s⁻¹.

For B2, the dissociation constant (Kd) – broadly, the concentration at which binding is half-saturated – with Evasin-1 WT [1] is 0.51 nM. This molecule yielded a koff in the assay with Evasin-1 WT [2] of 0.0022 s⁻¹.

Turning to B3, the koff with CCL3 [3] is 0.00276 s⁻¹. Besides, in the assay with CCL3 [4], the affinity, expressed as Kd, was 8 nM.

Molecule B4 showed a Kd with Evasin-1 WT [1] of 3.21 nM. The same molecule showed a koff in the assay with Evasin-1 WT [2] of 0.0111 s⁻¹.

Molecule B5 showed a dissociation constant (Kd) with Evasin-1 WT [1] of 0.17 nM. In the assay with Evasin-1 WT [2], this molecule had a koff of 0.00041 s⁻¹.

Turning to B6, the Kd with Evasin-1 WT [1] came to 0.12 nM; with Evasin-1 F14A W89A [6] it was 32.2 nM. Also, the off-rate constant (koff) with Evasin-1 WT [2] turned out to be 0.00243 s⁻¹; in the assay with Evasin-1 F14A W89A [5], 0.0146 s⁻¹.
